“Also recorded” adds a separate entry of the source.
B1: COI: chicken ovoinhibitor (protein, UniProt P10184 1-517, looked up)
Ovoinhibitor: MTDWVLHHKVGPLDMTTRYIFPLLPLPFLPHSESKRAVCAPRCSAMRTARQFVQVALALCCFADIAFGIEVNCSLYASGIGKDGTSWVACPRNLKPVCGTDGSTYSNECGICLYNREHGANVEKEYDGECRPKHVTIDCSPYLQVVRDGNTMVACPRILKPVCGSDSFTYDNECGICAYNAEHHTNISKLHDGECKLEIGSVDCSKYPSTVSKDGRTLVACPRILSPVCGTDGFTYDNECGICAHNAEQRTHVSKKHDGKCRQEIPEIDCDQYPTRKTTGGKLLVRCPRILLPVCGTDGFTYDNECGICAHNAQHGTEVKKSHDGRCKERSTPLDCTQYLSNTQNGEAITACPFILQEVCGTDGVTYSNDCSLCAHNIELGTSVAKKHDGRCREEVPELDCSKYKTSTLKDGRQVVACTMIYDPVCATNGVTYASECTLCAHNLEQRTNLGKRKNGRCEEDITKEHCREFQKVSPICTMEYVPHCGSDGVTYSNRCFFCNAYVQSNRTLNLVSMAAC
B2: BBI: protease inhibitor derived from soybeans; 71 amino acid chain with 7 disulfide bonds, molecular weight approximately 8000 (protein, UniProt P01055 40-110, looked up)
Bowman-Birk type proteinase …: DDESSKPCCDQCACTKSNPPQCRCSDMRLNSCHSACKSCICALSYPAQCFCVDITDFCYEPCKPSEDDKEN
B3: SBTI: soybean (Kunitz) trypsin inhibitor (protein, UniProt P01070 25-205, looked up)
Trypsin inhibitor A: DFVLDNEGNPLENGGTYYILSDITAFGGIRAAPTGNERCPLTVVQSRNELDKGIGTIISSPYRIRFIAEGHPLSLKFDSFAVIMLCVGIPTEWSVVEDLPEGPAVKIGENKDAMDGWFRLERVSDDEFNNYKLVFCPQQAEDDKCGDIGISIDHDDGTRRLVVSKNKPLVVQFQKLDKESL

Assays:
[1] = test system: proteolytic activity in colon mucosa; assay: proteolytic activity in colon mucosal biopsy samples of DMH-treated rats (MCA substrates); type: in vivo, rat; details: for levels of proteolytic activity in colon mucosa of DMH-exposed animals: one month after last DMH dose, 0.1% dietary BBIC, FIG. 5; for Protease Activity/μg protein, Glt-Gly-Arg-MCA, Mean / Protease Activity/μg protein, Boc-Val-Leu-Lys-MCA, Mean / Protease Activity/μg protein, Boc-Val-Pro-Arg-MCA, Mean: rat colon biopsy one month after last DMH injection (total 80 mg/kg), 0.1% dietary inhibitor where given, 1 animal, 3 samples; for Protease Activity/μg protein, Glt-Gly-Arg-MCA, Mean: control 1.21; for Protease Activity/μg protein, Boc-Val-Leu-Lys-MCA, Mean: control 3.07; for Protease Activity/μg protein, Boc-Val-Pro-Arg-MCA, Mean: control 15.97
Protocol: The levels of proteolytic activity were determined as following. Colon mucosal biopsy samples were thawed on ice and homogenized in ice-cold PBS in a sterile teflon-glass homogenizer. The level of proteolytic activity was measured by incubating aliquots of sample in 0.1M Tris (pH 7.5)-5 mM CaC12, with each of the following synthetic substrates: Boc-Val-Pro-Arg-MCA; Boc-Val-Leu-Lys-MCA; and Glt-Gly-Arg-MCA (Peninsula Laboratories, Inc., Belmont, Calif.). These substrates were selected since it is known that the proteolytic activity cleaving these substrates is affected by BBI. After a 2 hour incubation at 37° C., the reaction was terminated by dilution with 1.8 ml distilled H2 O. Release of the fluorescent reporter group, amino-methyl coumarin, was determined spectrophotometrically at excitation and emission wavelengths of 380 and 460 nm, respectively. […] Data were standardized on the basis of protein content and expressed as proteolytic activity/μg protein.
In these studies, animals were untreated or treated twice weekly for three weeks with DMH. […] One group of treated animals was also exposed to 0.1% dietary BBIC during and after the DMH injection period. Animals were killed one month after the last DMH injection was given. Colon biopsy samples were obtained and proteolytic activity levels were determined as described for the human mucosal biopsy samples.

[2] = test system: TPA-activated polymorphonuclear leukocytes (PMNs); details: TPA-activated human PMNs (Frenkel et al.); cited from earlier work
trypsin = assay: gelatin zymogram, trypsin control lanes; type: biochemical; details: 10 μg/ml; 5 ng trypsin; lanes 4 and 6 vs lane 1
Protocol: BBI or BBIC (at 10 μg/ml) was added to some of the biopsy sample homogenates and protease activity was analyzed on gelatin zymograms. The same rat colon sample from a 14 day DNBS/ethanol treated rat was used for the protease/zymogram analyses. The gel was run at 200 V for 40 minutes and was then cut into pieces. Each gel/column was treated as follows: 1) Control-contained 5 ng trypsin; 2) UC sample incubated in Tris at pH 8.0; 3) UC sample incubated in Tris at pH 8.0 with BBI added to achieve a final concentration of 10 μg/ml; 4) Control-contained 5 ng trypsin with BBI added to achieve a final concentration of 10 μg/ml; 5) UC sample incubated in Tris at pH 8.0 with BBIC added to achieve a final concentration of 10 μg/ml; 6) Control-contained 5 ng trypsin with BBIC added to achieve a final concentration of 10 μg/ml.
Twelve percent sodium diodecyl sulfate (SDS) polyacrylamide gels of 0.75 mm thickness were prepared containing 0.1% gelatin. A 2% gelatin stock was prepared in advance by dissolving gelatin in warm distilled water. Samples were placed in the gel wells in standard SDS-gel-loading buffer that contained 0.1% SDS but lacked beta-mercaptoethanol. They were not boiled prior to loading. The gels were run at 200 V for 40 minutes in a Bio-Rad Mini Protean II apparatus and then soaked in distilled water containing 2% Triton X-100 on a gyrorotary shaker for 15 minutes at 20° C. […]

C3H10T1/2 cells = details: Yavelow et al., 1985; cited from earlier work
[3] = test system: cells of patients with Bloom's syndrome; details: Kennedy et al., 1984; cited from earlier work
[4] = test system: DMH-induced colon and liver carcinogenesis; details: 0.5% of the diet or less (St. Clair et al.); cited from earlier work

Molecule	levels of proteolytic activity in colon mucosa of DMH-exposed animals [1]	Protease Activity/μg protein, Glt-Gly-Arg-MCA, Mean [1]	Protease Activity/μg protein, Boc-Val-Leu-Lys-MCA, Mean [1]	Protease Activity/μg protein, Boc-Val-Pro-Arg-MCA, Mean [1]	order of activity, inhibition of H2O2 formation [2]	inhibition of proteolytic activity of trypsin (trypsin)	radiation induced transformation in C3H10T1/2 cells (C3H10T1/2 cells)	levels of chromosome abnormalities [3]	effect upon the health of the mice [4]
CNNC [DMH, dimethylhydrazine, reference compound]	highly significant elevation	6.15 RFU/hr/Ag protein	10.15 RFU/hr/Ag protein	43.43 RFU/hr/Ag protein	–	–	–	–	–
B1	–	–	–	–	PtI-1≥PCI-2>PtI-2>COI>BBI>TOOI>LBI>SBTI	–	–	–	–
B2	not significantly different from control animals; also recorded: reduction in levels of these proteolytic activities	0.81 RFU/hr/Ag protein	1.96 RFU/hr/Ag protein	22.22 RFU/hr/Ag protein	PtI-1≥PCI-2>PtI-2>COI>BBI>TOOI>LBI>SBTI	effectively inhibit the proteolytic activity of trypsin	suppresses radiation induced transformation in C3H10T1/2 cells	reduce the levels of chromosome abnormalities	no adverse effect upon the health of the mice
B3	–	–	–	–	PtI-1≥PCI-2>PtI-2>COI>BBI>TOOI>LBI>SBTI	–	–	–	–

From US5614198A, “Bowman-Birk Inhibitor compositions for treatment of inflammatory disease” (The Trustees of the University of Pennsylvania, priority 1995, dated 1997)
